Experimental data published in IntAct's records for PubMed 31515488.

B1: Methylmalonyl-CoA epimerase, mitochondrial (Homo sapiens), Q96PE7 (parent)
chain: MARVLKAAAANAVGLFSRLQAPIPTVRASSTSQPLDQVTGSVWNLGRLNHVAIAVPDLEKAAAFYKNILGAQVSEAVPLPEHGVSVVFVNLGNTKMELLHPLGRDSPIAGFLQKNKAGGMHHICIEVDNINAAVMDLKKKKIRSLSEEVKIGAHGKPVIFLHPKDCGGVLVELEQA
partner: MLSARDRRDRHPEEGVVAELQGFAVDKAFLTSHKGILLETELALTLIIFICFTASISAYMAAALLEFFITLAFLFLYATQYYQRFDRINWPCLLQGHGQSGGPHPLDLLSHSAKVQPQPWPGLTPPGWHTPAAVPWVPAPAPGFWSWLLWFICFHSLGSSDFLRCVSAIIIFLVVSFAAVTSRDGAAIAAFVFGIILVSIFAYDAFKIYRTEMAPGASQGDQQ
B2: N-chimaerin (Homo sapiens), P15882 (parent)
chain: MALTLFDTDEYRPPVWKSYLYQLQQEAPHPRRITCTCEVENRPKYYGREFHGMISREAADQLLIVAEGSYLIRESQRQPGTYTLALRFGSQTRNFRLYYDGKHFVGEKRFESIHDLVTDGLITLYIETKAAEYIAKMTINPIYEHVGYTTLNREPAYKKHMPVLKETHDERDSTGQDGVSEKRLTSLVRRATLKENEQIPKYEKIHNFKVHTFRGPHWCEYCANFMWGLIAQGVKCADCGLNVHKQCSKMVPNDCKPDLKHVKKVYSCDLTTLVKAHTTKRPMVVDMCIREIESRGLNSEGLYRVSGFSDLIEDVKMAFDRDGEKADISVNMYEDINIITGALKLYFRDLPIPLITYDAYPKFIESAKIMDPDEQLETLHEALKLLPPAHCETLRYLMAHLKRVTLHEKENLMNAENLGIVFGPTLMRSPELDAMAALNDIRYQRLVVELLIKNEDILF
partner: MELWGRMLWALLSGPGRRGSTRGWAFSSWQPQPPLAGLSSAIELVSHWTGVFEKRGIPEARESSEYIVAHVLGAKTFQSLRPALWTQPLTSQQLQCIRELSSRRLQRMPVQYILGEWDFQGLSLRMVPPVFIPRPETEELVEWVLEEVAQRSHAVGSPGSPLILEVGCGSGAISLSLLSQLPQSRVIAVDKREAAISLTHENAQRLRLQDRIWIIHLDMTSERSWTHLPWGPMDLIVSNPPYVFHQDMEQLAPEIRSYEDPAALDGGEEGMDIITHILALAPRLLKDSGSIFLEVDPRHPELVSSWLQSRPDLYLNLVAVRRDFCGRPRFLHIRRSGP
B3: Zinc finger protein 414 (Homo sapiens), Q96IQ9 (parent)
chain: MEEKPSGPIPDMLATAEPSSSETDKEVLSPAVPAAAPSSSMSEEPGPEQAATPPVWERGGAGGMQQGSSPAPDSCQPGPGPSPGLTSIVSGTSEDLRPPRRRPPPGKQIPCSSPGCCLSFPSVRDLAQHLRTHCPPTQSLEGKLFRCSALSCTETFPSMQELVAHSKLHYKPNRYFKCENCLLRFRTHRSLFKHLHVCAEHAQSPAPPPPPALDREPPAPERPPEVDPASAPGLPFPLLEPFTTPAPAPTGPFLPYLNPAPFGLSPPRLRPFLAAAPGPPASSAAVWKKSQGAGSSPRRPQGGSDAPSGACR
partner: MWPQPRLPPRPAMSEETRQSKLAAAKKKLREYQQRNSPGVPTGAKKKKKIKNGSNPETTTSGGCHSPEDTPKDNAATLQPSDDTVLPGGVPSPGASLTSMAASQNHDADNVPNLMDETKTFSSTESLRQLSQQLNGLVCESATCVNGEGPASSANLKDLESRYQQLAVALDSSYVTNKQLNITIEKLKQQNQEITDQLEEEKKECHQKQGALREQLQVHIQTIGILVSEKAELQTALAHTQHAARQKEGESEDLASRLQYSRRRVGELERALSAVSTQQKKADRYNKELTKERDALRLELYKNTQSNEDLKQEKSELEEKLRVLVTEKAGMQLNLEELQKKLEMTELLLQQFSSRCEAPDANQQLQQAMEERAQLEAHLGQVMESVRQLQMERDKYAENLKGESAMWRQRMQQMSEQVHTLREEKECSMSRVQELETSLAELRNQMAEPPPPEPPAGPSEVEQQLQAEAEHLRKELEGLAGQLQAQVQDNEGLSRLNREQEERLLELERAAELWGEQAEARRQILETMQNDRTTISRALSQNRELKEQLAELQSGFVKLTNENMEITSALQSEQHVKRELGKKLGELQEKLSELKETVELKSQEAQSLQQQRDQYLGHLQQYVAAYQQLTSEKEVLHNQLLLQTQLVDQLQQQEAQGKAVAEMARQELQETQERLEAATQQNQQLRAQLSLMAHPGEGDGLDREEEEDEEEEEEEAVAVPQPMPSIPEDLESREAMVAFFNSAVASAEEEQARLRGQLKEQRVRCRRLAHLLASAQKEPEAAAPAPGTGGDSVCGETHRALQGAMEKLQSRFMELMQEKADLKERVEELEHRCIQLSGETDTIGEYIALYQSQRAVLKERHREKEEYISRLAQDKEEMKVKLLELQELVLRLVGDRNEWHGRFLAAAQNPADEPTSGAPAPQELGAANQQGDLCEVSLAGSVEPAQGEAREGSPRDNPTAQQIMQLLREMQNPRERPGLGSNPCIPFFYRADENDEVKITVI
B4: Syntenin-1 (Homo sapiens), O00560 (parent)
chain: MSLYPSLEDLKVDKVIQAQTAFSANPANPAILSEASAPIPHDGNLYPRLYPELSQYMGLSLNEEEIRANVAVVSGAPLQGQLVARPSSINYMVAPVTGNDVGIRRAEIKQGIREVILCKDQDGKIGLRLKSIDNGIFVQLVQANSPASLVGLRFGDQVLQINGENCAGWSSDKAHKVLKQAFGEKITMTIRDRPFERTITMHKDSTGHVGFIFKNGKITSIVKDSSAARNGLLTEHNICEINGQNVIGLKDSQIADILSTSGTVVTITIMPAFIFEHIIKRMAPSIMKSLMDHTIPEV
partner: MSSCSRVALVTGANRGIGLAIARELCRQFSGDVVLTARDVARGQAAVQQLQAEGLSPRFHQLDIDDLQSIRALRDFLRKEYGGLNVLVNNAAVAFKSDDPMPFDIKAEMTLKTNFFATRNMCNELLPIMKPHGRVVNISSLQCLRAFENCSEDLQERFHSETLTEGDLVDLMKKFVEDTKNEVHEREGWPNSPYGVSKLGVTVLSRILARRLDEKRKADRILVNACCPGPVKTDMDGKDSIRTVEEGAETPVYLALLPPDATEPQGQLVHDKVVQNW
B5: Protein LDOC1 (Homo sapiens), O95751 (parent)
chain: MVDELVLLLHALLMRHRALSIENSQLMEQLRLLVCERASLLRQVRPPSCPVPFPETFNGESSRLPEFIVQTASYMLVNENRFCNDAMKVAFLISLLTGEAEEWVVPYIEMDSPILGDYRAFLDEMKQCFGWDDDEDDDDEEEEDDY
partner: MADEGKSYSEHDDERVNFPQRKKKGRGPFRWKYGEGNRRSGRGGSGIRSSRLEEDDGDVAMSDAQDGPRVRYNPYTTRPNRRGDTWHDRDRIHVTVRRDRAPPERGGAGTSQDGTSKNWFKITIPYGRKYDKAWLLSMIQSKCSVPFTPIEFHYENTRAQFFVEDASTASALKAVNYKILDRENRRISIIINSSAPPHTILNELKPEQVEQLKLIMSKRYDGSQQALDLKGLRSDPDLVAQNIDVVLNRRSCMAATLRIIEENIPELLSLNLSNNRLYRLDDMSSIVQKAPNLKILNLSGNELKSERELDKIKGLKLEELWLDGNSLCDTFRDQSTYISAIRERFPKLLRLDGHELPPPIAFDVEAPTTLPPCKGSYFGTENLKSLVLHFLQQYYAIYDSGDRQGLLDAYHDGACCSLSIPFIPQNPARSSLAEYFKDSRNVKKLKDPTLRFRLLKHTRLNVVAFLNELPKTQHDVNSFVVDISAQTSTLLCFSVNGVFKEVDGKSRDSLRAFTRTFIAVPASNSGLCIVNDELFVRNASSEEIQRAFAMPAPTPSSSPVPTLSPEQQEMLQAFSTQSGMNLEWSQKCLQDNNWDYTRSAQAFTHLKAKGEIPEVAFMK
B6: Radial spoke head protein 3 homolog (Homo sapiens), Q86UC2 (parent)
chain: MTVKPAKAASLARNLAKRRRTYLGGAAGRSQEPEVPCAAVLPGKPGDRNCPEFPPPDRTLGCWATDAAPAAGLCGAGSEPSIAPTSCAGNLPSRPPPLLSPLLASRNPCPWHYLHLSGSHNTLAPTCFKAKLHRKRGSQPPDMASALTDRTSRAPSTYTYTSRPRALPCQRSRYRDSLTQPDEEPMHYGNIMYDRRVIRGNTYALQTGPLLGRPDSLELQRQREARKRALARKQAQEQLRPQTPEPVEGRKHVDVQTELYLEEIADRIIEVDMECQTDAFLDRPPTPLFIPAKTGKDVATQILEGELFDFDLEVKPVLEVLVGKTIEQSLLEVMEEEELANLRASQREYEELRNSERAEVQRLEEQERRHREEKERRKKQQWEIMHKHNETSQKIAARAFAQRYLADLLPSVFGSLRDSGYFYDPIERDIEIGFLPWLMNEVEKTMEYSMVGRTVLDMLIREVVEKRLCMYEHGEDTHQSPEPEDEPGGPGAMTESLEASEFLEQSMSQTRELLLDGGYLQRTTYDRRSSQERKFMEERELLGQDEETAMRKSLGEEELS
partner: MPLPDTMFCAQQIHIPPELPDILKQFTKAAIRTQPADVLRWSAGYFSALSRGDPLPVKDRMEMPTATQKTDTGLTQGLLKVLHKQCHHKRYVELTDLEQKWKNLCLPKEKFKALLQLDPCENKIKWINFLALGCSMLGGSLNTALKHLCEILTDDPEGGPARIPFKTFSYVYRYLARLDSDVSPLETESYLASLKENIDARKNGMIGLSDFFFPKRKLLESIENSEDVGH

Variants of: B1
Settings: with cklf5_human CMTM5, Q96DZ9
For R143H, the “effect of a mutation on the interaction” value was “with no effect”.

Variants of: B2
Settings: with hemk1_human HEMK1, Q9Y5R4
With D115N the “effect of a mutation on the interaction” value was “disrupting interaction strength”.

Variants of: B3
Settings: with goga2_human GOLGA2, Q08379
In the case of S166G, the “effect of a mutation on the interaction” value is reported as “with no effect”. In the case of P77S, the “effect of a mutation on the interaction” value is reported as “with no effect”.

Variants of: B4
Settings: with cbr3_human CBR3, O75828
For K124R, the “effect of a mutation on the interaction” value was “with no effect”.

Variants of: B5
Settings: with nxf1_human NXF1, Q9UBU9
For L12H, the “effect of a mutation on the interaction” value was “disrupting interaction strength”.

Variants of: B6
Settings: with rop1l_human ROPN1L
E484K was tested, and the “effect of a mutation on the interaction” value was “with no effect”. In the case of R213W, the “effect of a mutation on the interaction” value is reported as “with no effect”. With R213Q the “effect of a mutation on the interaction” value was “with no effect”. N201S was tested, and the “effect of a mutation on the interaction” value was “with no effect”. M439T was tested, and the “effect of a mutation on the interaction” value was “with no effect”. For G518D, the “effect of a mutation on the interaction” value was “with no effect”. R398Q was tested, and the “effect of a mutation on the interaction” value was “with no effect”.
